# Measured values taken from US20200132689.
# Target: panel of anti-NAMPT murine monoclonal antibodies (mAbs)
protein,measurement,value
nicotinamide phosphoribosyltransferase (NAMPT) (protein) MNPAAEAEFNILLATDSYKVTHYKQYPPNTSKVYSYFECREKKTENSKLRKVKYEETVFYGLQYILNKYLKGKVVTKEKIQEAKDVYKEHFQDDVFNEKGWNYILEKYDGHLPIEIKAVPEGFVIPRGNVLFTVENTDPECYWLTNWIETILVQSWYPITVATNSREQKKILAKYLLETSGNLDGLEYKLHDFGYRGVSSQETAGIGASAHLVNFKGTDTVAGLALIKKYYGTKDPVPGYSVPAAEHSTITAWGKDHEKDAFEHIVTQFSSVPVSVVSDSYDIYNACEKIWGEDLRHLIVSRSTQAPLIIRPDSGNPLDTVLKVLEILGKKFPVTENSKGYKLLPPYLRVIQGDGVDINTLQEIVEGMKQKMWSIENIAFGSGGGLLQKLTRDLLNCSFKCSYVVTNGLGINVFKDPVADPNKRSKKGRLSLHRTPAGNFVTLEEGKGDLEEYGQDLLHTVFKNGKVTKSYSFDEIRKNAQLNIELEAAHH,NAMPT-induced NFκB phosphorylation,highly efficacious in significantly reducing NAMPT-induced NFκB phosphorylation
